From patent publication US11505583B2, “Proteins for the treatment of epithelial barrier function disorders” (Second Genome, Inc., priority 2018, dated 2022)
Residue numbers refer to the chain shown, from its start. Numbers in names are those of the source.

B1: SG-11 (SEQ ID NO:7): Recombinant SG-11 with N-terminal methionine, 233 amino acids, no N-terminal tag (protein)
chain: MLEGEESVVYVGKKGVIASLDVETLDQSYYDETELKSYVDAEVEDYTAEHGKNAVKVESLKVEDGVAKLKMKYKTPEDYTAFNGIELYQGKVVASLAAGYVYDGEFARVEEGKVVGAATKQDIYSEDDLKVAIIRANTDVKVDGEICYVSCQNVKLTGKDSVSIRDGYYLETGSVTASVDVTGQESVGTEQLSGTEQMEMTGEPVNADDTEQTEAAAGDGSFETDVYTFIVYK
B2: SG-11V5: SG-11 variant SEQ ID NO:19 comprising N53S, N83S, C147V, C151S with respect to SEQ ID NO:7 (protein)
chain: B1 chain with N53S, N83S, C147V, C151S

How the values were obtained:
[1] = Stability in storage buffer formulations by analytical SEC (Example 11); assay type: physicochemical
Procedure: Although SG-11 protein is very stable at high temperature, forming aggregations at 37° C. in a week could be the problem at the downstream processing stage. Deamidation of asparagine residues found by LC/MS/MS are also a risk factor. In order to improve the manufacturability of a protein comprising SEQ ID NO:3 or variants thereof, the protein depicted as SG-11 (SEQ ID NO:7) was mutated to contain the following 4 substitutions: N53S, N83S, C147V and C151S. This variant with 4 substitutions is designated as SG-11V5, provided herein as SEQ ID NO:19. The stability of purified SG-11 and SG-11V5 was tested in different storage buffer formulations. SG-11V5 (SEQ ID NO:19) has about 98.3% sequence identity to SEQ ID NO:7.
Specifically, purified SG-11 (SEQ ID NO:7) was incubated in pH 5.2 (FIGS. 15A, 15B and 15C), pH 7.0 (FIGS. 15D, 15E and 15F) and pH 8.0 (FIGS. 15G, 15H and 15I). Effect of additives was also tested at the 3 different pH conditions: 150 mM NaCl (FIGS. 15A, 15D and 15G); 150 mM NaCl and 100 mM arginine (FIGS. 15B, 15E and 15H); and 150 mM NaCl and 0.5 M sorbitol (FIGS. 15C, 15F and 15I). Stability was analyzed by analytical SEC. Arrow heads indicate the retention time of the monomeric form.
SG-11V5 (SEQ ID NO:19) was incubated in pH 5.2 (FIGS. 16A, 16B and 16C), pH 7.0 (FIGS. 16D, 16E and 16F) and pH 8.0 (FIGS. 16G, 16H and 16I). Effect of additives was also tested at the 3 different pH conditions: 150 mM NaCl (FIGS. 16A, 16D and 16G); 150 mM NaCl and 100 mM Arg (FIGS. 16B, 16E and 16H); and 150 mM NaCl and 0.5 M sorbitol (FIGS. 16C, 16F and 16I). Stability was analyzed by analytical SEC. Arrow heads indicate the retention time of the monomeric form.

[2] = Post-translational modifications after storage, LC-MS/MS, SG-11 vs SG-11V5 (Example 10); assay type: physicochemical; conditions: for Oxidation of M1 (MLEGEESVVYVGK): 1 mg/ml in Buffer 1 (50 mM NaPO4, pH 8, 150 mM NaCl, 10% glycerol)
Procedure: In accordance with PTMs observed when SG-11 (SEQ ID NO:9) was subjected to stress conditions (Example 11), SG-11V5 (SEQ ID NO:19) was analyzed by LC-MS/MS for post translational modifications using the methods described in Example 11, and compared with PTMs for SG-11 (SEQ ID NO:7)
For this analysis, PTMs of wildtype SG-11 (SEQ ID NO:7) and SG-11V5 (SEQ ID NO:19) were compared. In the first analysis (results provided in Table 10 below), the proteins were stored at a concentration of 1 mg/ml in Buffer 1 (50 mM NaPO4^−, pH 8, 150 mM NaCl, 10% glycerol) and stored for 2 weeks at either 4° C. or 40° C. The proteins were then treated with DTT and IAA, followed by trypsin digestion. The digested samples were then analyzed by Waters ACQUITY UPLC couples to Xevo G2-XS QTOF mass spectrometer using a Protein BEH C18 column.
In a second analysis, the SG-11 (SEQ ID NO:7) and SG-11V5 (SEQ ID NO:19) proteins were each stored at 40° C. in a variety of buffers. The storage buffer used in this experiment was 100 mM NaPO4^−, pH7, with 10% sorbitol (+Sor) or without 10% sorbitol (−Sor) and with 10% glycerol (+Gly) or without 10% glycerol (−Gly) as indicated in Table 11. […] There were also differences in levels of N137 deamidation for the two proteins with the presence of at least glycerol and also the presence of both sorbitol and glycerol resulting in large decreases in N137 deamidation.

[3] = 4° C., 2 weeks, 1 mg/ml in Buffer 1 (pH 8)
[4] = 40° C., 2 weeks, 1 mg/ml in Buffer 1 (pH 8)
[5] = 40° C., 100 mM NaPO4, pH7, +Sor (10% sorbitol) −Gly
[6] = 40° C., 100 mM NaPO4, pH7, +Sor +Gly
[7] = 40° C., 100 mM NaPO4, pH7, −Sor +Gly (10% glycerol)
[8] = 40° C., 100 mM NaPO4, pH7, −Sor −Gly

Row | Molecule | Behaviour at pH 5.2 [1] | Oxidation of M1 (MLEGEESVVYVGK) ([2]; 4° C., 2 weeks) [%] | Deamidation of N137 (ANTDVK) [2, 3] [%] | Oxidation of M1 (MLEGEESVVYVGK) ([2]; 40° C., 2 weeks) [%] | Deamidation of N137 (ANTDVK) [2, 4] [%] | Deamidation of N137 [2, 5] [%] | Oxidation of M1 [2, 5] [%] | Deamidation of N137 [2, 6] [%] | Oxidation of M1 [2, 6] [%] | Deamidation of N137 [2, 7] [%] | Oxidation of M1 [2, 7] [%] | Deamidation of N137 [2, 8] [%] | Oxidation of M1 [2, 8] [%] | further results
1 | B1 | precipitated | 8.9 | 1.0 | 12.5 | 0.9 | 2.6 | 12.1 | 2.5 | 27.8 | 3.0 | 38.6 | 0.9 | 20 | Aggregate formation (analytical SEC) ([1]; 100 mM arginine at pH 7.0 (150 mM NaCl), FIG. 15): greatly suppressed; Deamidation of N83 [2, 3]: 19.4%; Deamidation of N83 [2, 4]: 98.1%; Deamidation of N83 [2, 5]: 93.9%; Deamidation of N83 [2, 6]: 87.4%; Deamidation of N83 [2, 7]: 96.2%; Deamidation of N83 [2, 8]: 98.1%
2 | B2 | precipitated | 2.5 | 0.1 | 4.7 | 0.3 | 3.3 | 3.3 | 0.1 | 5.9 | 0.4 | 5.6 | 1.5 | 2.7 | Aggregation (analytical SEC) ([1]; all conditions tested: pH 5.2, 7.0, 8.0, 150 mM NaCl ± 100 mM arginine or 0.5 M sorbitol, FIG. 16): did not show large amount of aggregation; Stability compared with SG-11 ([1]; pH 7.0 and pH 8.0): improved stability; Small aggregation peak at 1.34 mL (analytical SEC) ([1]; with 100 mM arginine or 0.5 M sorbitol): suppressed
